Legend:
Format in all cases: biochemical, Synechocystis sp. PCC 6803
[1] = substrate: CC1=C(CCC(=O)O)c2cc3nc(cc4[nH]c(cc4C)cc4[nH]c(cc1n2)cc4C)C(C)=C3CCC(=O)O; test: continuous fluorometric MgDIX formation assay, Michaelis-Menten fit; details: 5 mM ATP, Mg2+, pH 7.7, 34 °C, I 0.1
[2] = substrate: Nc1ncnc2c1ncn2[C@@H]1O[C@H](COP(=O)(O)OP(=O)(O)OP(=O)(O)O)[C@@H](O)[C@H]1O; test: continuous fluorometric MgDIX formation assay, Hill fit; details: 10 mM free Mg2+, 8 μM DIX, pH 7.7, 34 °C
[3] = substrate: Nc1ncnc2c1ncn2[C@@H]1O[C@H](COP(=O)(O)OP(=O)(O)OP(=O)(O)O)[C@@H](O)[C@H]1O; test: continuous fluorometric MgDIX formation assay, Michaelis-Menten fit; details: 10 mM free Mg2+, 8 μM DIX, pH 7.7, 34 °C, I 0.1, non-cooperative

B1: magnesium chelatase (ChlI, His6-ChlD, His6-ChlH); porphyrin site (Synechocystis sp. PCC 6803 substr. Kazusa) (protein)
chain: MFTNVKSTIRRVDPEALNGRQLLKVVYVVLESQYQSALSAAVRNINRTNSSLAIQLTGYLIEELRDPENYANFKHDVSEANLFIASLIFIEDLADKVVEAVTPYRDNLDAAIVFPSMPQVMRLNKMGSFSMAQLGQSKSAIAQFMKKRKENSSGAGFQDAMLKLLRTLPTVLKYLPVEKAQDARNFMLSFQYWLGGSQENLENFLLMLTDKYVYPDLGLDKLVNYQEPVVYPDMGIWHPLSMQMFENVKDYLEWYNQRPDISEDLKDPLAPCIGLIMQRTHLVTGDDAHYVGMVQELEAMGARVICVFSGGLDFSKPVNEYFWDKSVNGVEPLPIVDAVVSLTGFALVGGPARQDHPRAIESLKKLNRPYMCALPLVFQTTEEWEASDLGLHPIQVALQIAIPELDGAIEPIILSGRDGSTGRAIALQDRLEAIAQRAMKWANLRKKPKLDKKVAITVFSFPPDKGNVGTAAYLDVFGSIYEVMKGLQGNGYDVQDLPGSAKELMEAVIHDAQAQYNSPELNIAHRMSVEQYERLTPYSVRLEENWGKPPGHLNSDGQNLLIYGKEFGNVFIGVQPTFGYEGDPMRLLFSRSASPHHGFAAYYTYLNHIWKADAVLHFGTHGSLEFMPGKQMGMSGECYPDNLIGTIPNLYYYAANNPSEATIAKRRGYASTISYLTPPAENAGLYKGLQELNELIGSYQTLKDSGRGIQIVNTIMDQARICNLDQDVNLPDINAEEMDQGQRDTIVGSVYRKLMEIESRLLPCGLHVIGQPPSAEEAIATLVNIASLDREDEGIWALPTLIAESIGRNMEEIYRNSDKGILADVELLQDITLATRAAVAALVQEQINADGRVSFVSKLNFFKIGKKAPWVKSLCDSGYPNVNEEKLKPLFEYLEFCLEQVCADNEFGGLLQALEGEYVLPGPGGDPIRNPNVLPTGKNIHALDPQSIPTLAAVQSAKVVVDRLLERQRAENGGNYPETIASVLWGTDNIKTYGESLAQIMWMVGAKPVPDALGRVNKIELVPLEELGRPRIDVVVNCSGVFRDLFINQMNLLDQAVKLAAEADEPLEMNFVRKHALEQAEEMGIGVREAATRIFSNASGSYSSNVNLAVENSSWEDESELQEMYLKRKSFAFNSDNPGMMDQNRDMFERALKTADATFQNLDSSEISLTDVSHYFDSDPTKLISTLRDDGKAPAAYIADTTTANAQVRTLSETVRLDARTKLLNPKWYEGMLSHGYEGVRELSKRLVNTMGWSATAGAVDNWVYEDANSTFIKDEEMCKRLMDLNPNSFRRMVSTLLEVNGRGYWETSDENLERLQELYQEVEDRIEGVE
notes: recombinant from E. coli; His6 tags on ChlD and ChlH; copies are assay ratio; with Magnesium-chelatase subunit ChlI; Magnesium-chelatase subunit ChlD
[1]
  Km: 5.74 ± 0.77 µM
  kcat: 1.13 ± 0.06 min⁻¹

B2: magnesium chelatase (ChlI, His6-ChlD, His6-ChlH); nucleotide sites (Synechocystis sp. PCC 6803 substr. Kazusa) (protein)
chain 1: MTATLAAPSKTRRVVFPFTAIVGQDEMKLALLLNVIDPKIGGVMIMGDRGTGKSTTIRALADLLPEIEVVANDPFNSSPSDPEMMSEEVRIRVDSQEPLSIVKKKVTMVDLPLGATEDRVCGTIDIEKALSEGVKAFEPGLLAKANRGILYVDEVNLLDDHLVDVLLDSAAGGWNTVEREGISIRHPARFVLVGSGNPEEGELRPQLLDRFGMHAEIRTVREPELRVKIVEQRTEFDQNPHPFCDQYQTEQEALQAKIVNAQNLLPQVTIDYDYRVKVSEVCAELDVDGLRGDIVTNRAAKALAAFEGRTEVTVDDISRVIVLCLRHRLRKDPLESIDSGSKVEKVFKRVFGVVDEA
chain 2: not shown
notes: recombinant from E. coli; His6 tags on ChlD and ChlH, ChlI untagged; ATPase sites in ChlI, allosteric nucleotide site proposed in ChlD; with Magnesium-chelatase subunit ChlH
[2]; I 0.1, Hill n 2.0 ± 0.2
  K0.5: 0.43 ± 0.02 mM
  kcat: 0.405 ± 0.014 min⁻¹

B3: magnesium chelatase (ChlI, His6-ChlD, His6-ChlH); nucleotide sites (Synechocystis sp. PCC 6803 substr. Kazusa; P72772:R208A) (protein)
chain 1: B2 chain 1
chain 2: not shown
notes: as for B2
[2]; I 0.1, Hill n 2.0 ± 0.10
  K0.5: 0.78 ± 0.02 mM
  kcat: 0.263 ± 0.005 min⁻¹

B4: magnesium chelatase (ChlI, His6-ChlD, His6-ChlH); nucleotide sites (Synechocystis sp. PCC 6803 substr. Kazusa; P72772:R289A) (protein)
chain 1: B2 chain 1
chain 2: not shown
notes: as for B2
[3]
  Km: 1.79 ± 0.32 mM
  kcat: 0.054 ± 0.005 min⁻¹

B5: magnesium chelatase (ChlI, His6-ChlD, His6-ChlH); nucleotide sites (Synechocystis sp. PCC 6803 substr. Kazusa; P72772:E152Q) (protein)
chain 1: B2 chain 1
chain 2: not shown
notes: as for B2
[2]; I 0.1, Hill n 1.8 ± 0.17
  K0.5: 0.72 ± 0.04 mM
  kcat: 0.108 ± 0.004 min⁻¹
